Test results from US7858298.

Tests used:
[1] = target: human CCR5 expressed on the cell surface (human) (UniProt P51681); assay: cell-based or functional assay
[2] = target: CD4 on CD4+ target cells (human) (UniProt P01730); assay: cell-based or functional assay

Sequence of recombinant human MIP-1β (P13236 24-92 limits assumed): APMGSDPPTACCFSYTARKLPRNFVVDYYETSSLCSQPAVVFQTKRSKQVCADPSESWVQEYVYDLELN
Sequence of recombinant human MIP-1α (P10147 27-92 limits assumed): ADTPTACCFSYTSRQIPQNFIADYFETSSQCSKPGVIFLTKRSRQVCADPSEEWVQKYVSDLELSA
Sequence of recombinant human RANTES (P13501 24-91): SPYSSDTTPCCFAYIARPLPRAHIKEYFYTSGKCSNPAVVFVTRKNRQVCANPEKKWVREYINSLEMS

For RANTES + MIP-1α + MIP-1β, the % Fusion (RET assay), LW5 CD4+ cells with HeLa-JR-FL cells; R/Mα/Mβ 106/533/133 ng/ml [1] was 39%, the % Fusion (RET assay), PM1 cells with HeLa-JR-FL cells; R/Mα/Mβ 80/400/100 ng/ml [1] was 1% and the % luciferase activity, entry of ADA env-complemented virus into PM1 cells; R/Mα/Mβ 50/50/50 ng/ml [1] was 3%. For the same substance, the % luciferase activity, entry of BaL env-complemented virus into PM1 cells; R/Mα/Mβ 50/50/50 ng/ml [1] was 2%, the % luciferase activity, entry of JR-FL env-complemented virus into LW4 CD4+ T-cells; R/Mα/Mβ 200/200/200 ng/ml [1] was 14% and the % luciferase activity, entry of JR-FL env-complemented virus into LW5 CD4+ T-cells; R/Mα/Mβ 200/200/200 ng/ml [1] was 15%. The luciferase activity, ADA entry into 3T3-CD4 cells expressing CKR-5, with R/Mα/Mβ 400 ng/ml each (28400 without) (luciferase activity (unit not given)) [1] was 1220, the luciferase activity, ADA entry into COS-CD4 cells expressing CKR-5, with R/Mα/Mβ 400 ng/ml each (153000 without) (luciferase activity (unit not given)) [1] was 3210 and the luciferase activity, ADA entry into HeLa-CD4 cells expressing CKR-5, with R/Mα/Mβ 400 ng/ml each (310000 without) (luciferase activity (unit not given)) [1] was 6340. It also gave a luciferase activity, BaL entry into 3T3-CD4 cells expressing CKR-5, with R/Mα/Mβ 400 ng/ml each (11700 without) (luciferase activity (unit not given)) [1] of 756, a luciferase activity, BaL entry into COS-CD4 cells expressing CKR-5, with R/Mα/Mβ 400 ng/ml each (58800 without) (luciferase activity (unit not given)) [1] of 756 and a luciferase activity, BaL entry into HeLa-CD4 cells expressing CKR-5, with R/Mα/Mβ 400 ng/ml each (104000 without) (luciferase activity (unit not given)) [1] of 750.

In the case of “recombinant human RANTES (from UniProt P13501 24-91) (ligand)”, the % Fusion (RET assay), LW5 CD4+ cells with HeLa-JR-FL cells; RANTES 106 ng/ml [1] is reported as 65%, the % Fusion (RET assay), PM1 cells with HeLa-JR-FL cells; RANTES 80 ng/ml [1] is reported as 8% and the % luciferase activity, entry of ADA env-complemented virus into PM1 cells; RANTES 100 ng/ml [1] is reported as 1%. For the same substance, the % luciferase activity, entry of BaL env-complemented virus into PM1 cells; RANTES 100 ng/ml [1] was 1%.

Work on “recombinant human MIP-1β (from UniProt P13236 24-92) (ligand)” yielded a % Fusion (RET assay), LW5 CD4+ cells with HeLa-JR-FL cells; MIP-1β 133 ng/ml [1] of 44%, a % Fusion (RET assay), PM1 cells with HeLa-JR-FL cells; MIP-1β 100 ng/ml [1] of 13% and a % luciferase activity, entry of ADA env-complemented virus into PM1 cells; MIP-1β 100 ng/ml [1] of 6%. For the same substance, the % luciferase activity, entry of BaL env-complemented virus into PM1 cells; MIP-1β 100 ng/ml [1] was 1%.

For “recombinant human MIP-1α (from UniProt P10147 27-92) (ligand)”, the % Fusion (RET assay), LW5 CD4+ cells with HeLa-JR-FL cells; MIP-1α 533 ng/ml [1] was 72%, the % Fusion (RET assay), PM1 cells with HeLa-JR-FL cells; MIP-1α 400 ng/ml [1] was 39% and the % luciferase activity, entry of ADA env-complemented virus into PM1 cells; MIP-1α 100 ng/ml [1] was 54%. It also gave a % luciferase activity, entry of BaL env-complemented virus into PM1 cells; MIP-1α 100 ng/ml [1] of 54%.

Work on monoclonal antibody OKT4A yielded a % Fusion (RET assay), LW5 CD4+ cells with HeLa-BRU cells; OKT4A 3 ug/ml [2] of 0% and a % Fusion (RET assay), LW5 CD4+ cells with HeLa-JR-FL cells; OKT4A 3 ug/ml [2] of 0%.
